Results published in US20210379068A1, “METHODS AND MATERIALS FOR TREATING NEUROPSYCHIATRIC DISORDERS” (Mayo Foundation for Medical Education and Research, priority 2018, published 2021).

B1: Cxcl1: Recombinant CXCL1 (Peprotech, #250-11) injected i.p. into lean mice (protein, UniProt P12850 25-96, looked up)
Growth-regulated alpha protein: APIANELRCQCLQTMAGIHLKNIQSLKVLPSGPHCTQTEVIATLKNGREACLDPEAPLVQKIVQKMLKGVPK

Experiments:
Assay type in all cases: in vivo, mouse
obese C57BL/6 mice [1] = test: Elevated plus maze, HFD mice treated with Reparixin; details: HFD C57BL/6 mice; Reparixin 30 mg/kg s.c. twice per day for 2 weeks vs non-treated
Procedure: (§1) Reparixin L-lysine salt (MedChemExpress, #HY-15252) or L-Lysine hydrochloride (MedChemExpress, #HY-N0470) was dissolved in H2O was administered to obese C57BL/6 mice (fed for 2 months with high-fat diet) via subcutaneous injection (30 mg/kg) twice per day for 2 weeks. 2 hours after the last injection mice were tested in open field and elevated plus maze and afterwards dissected. A grey colored elevated plus maze apparatus was used. Two open arms (25×5 cm) and two closed arms (25×5 cm) were attached at right angles to a central platform (5×5 cm). The apparatus was set 40 cm above the floor. Mice were first acclimatized to the room for 1-1.5 hours. Mice were then placed individually on the central platform with their back to one of the open arms. Before the test, mice were habituated for 1 minute to the maze, then placed back in the home cage for 5 minutes. Mice were tested for 5 minutes during which they could freely explore the apparatus. Tracking software (Ethovision) recognizes mouse head, central body point, and the base of the tail. Anxiety was quantified by frequency of and time spent during head pokes/dips toward open arms. Higher anxiety is indicated by a lower frequency of movement into open arms and less time spent there.

obese C57BL/6 mice [2] = test: Open field test, HFD mice treated with Reparixin; details: HFD C57BL/6 mice; Reparixin 30 mg/kg s.c. twice per day for 2 weeks vs non-treated
Procedure: (§2) Reparixin L-lysine salt (MedChemExpress, #HY-15252) or L-Lysine hydrochloride (MedChemExpress, #HY-N0470) was dissolved in H2O was administered to obese C57BL/6 mice (fed for 2 months with high-fat diet) via subcutaneous injection (30 mg/kg) twice per day for 2 weeks. 2 hours after the last injection mice were tested in open field and elevated plus maze and afterwards dissected. Locomotor activity and anxiety-like behavior of mice were assessed in sound-insulated, rectangular activity chambers (Med Associates Inc., St Albans, Vt., USA: W×L×D=27 cm×27 cm×20 cm with continually running fans, infrared lasers, and sensors). Beam breaks were assessed in 2-minute bins over 30 minutes, converted automatically to current mouse location and distance travelled (cm), and recorded on a computer with Med-PC software Version 4.0. Before the test, mice were acclimatized to the room for 1-1.5 hours before being introduced into the chambers. Mice were habituated for 5 minutes in the Open Field chamber (without recording) then placed for another 5 minutes in the home cage. Afterwards, mice were introduced back to the chambers and all mouse movements were recorded for 30 minutes. Anxiety was quantified by the distance mice travelled in the central 25% of the chamber (zone 1) as a function of the total distance mice travelled and by frequencies of entries into zone 1.

lean C57BL/6 [3] = test: Elevated plus maze after Cxcl1 injection; details: Cxcl1 5 μg/kg i.p. daily for 7 days vs vehicle
Procedure: (§3) Recombinant CXCL1 (Peprotech, #250-11) or vehicle (PBS) was administered to lean C57BL/6 via i.p. injection (5 μg/kg in PBS) daily for 7 days. 2 hours after the last injection mice were tested in open field and elevated plus maze and afterwards dissected.
as §1, with “A” for “Reparixin L-lysine salt (MedChemExpress, #HY-15252) or L-Lysine hydrochloride (MedChemExpress, #HY-N0470) was dissolved in H2O was administered to obese C57BL/6 mice (fed for 2 months with high-fat diet) via subcutaneous injection (30 mg/kg) twice per day for 2 weeks. 2 hours after the last injection mice were tested in open field and elevated plus maze and afterwards dissected. A”

[4] = Circulating Cxcl1 after Cxcl1 injection in lean C57BL/6 mice; details: Cxcl1 5 μg/kg i.p. daily for 7 days vs vehicle
Procedure: as §3
Serum levels of cytokines: Eotaxin, G-Csf, Tnf-α, Il-6, Ifn-γ, Il-1α, Il-1β, Il-17, Il-2, Kc/Cxcl1, Mcp-1, M-Csf, Mig, Mip-1α, and Mip-1β were determined using a Multiplexing LASER Bead Assay (Mouse Cytokine Array/Chemokine Array 31-Plex (MD31), Eve Technologies; Canada). Blood was withdrawn from mice by punctuation of the sub-mandibular vein at the day of dissection before an animal was sacrificed. 50 μL of serum were shipped to Eve Technologies on dry ice. Due to high variability of data an unbiased elimination of outliers was performed using ROUT's method (Graphpad 7 Prism). The same panel was used to detect SASP in MAF and 50 μl of media was shipped to Eve Technologies on dry ice.

lean C57BL/6 [5] = test: Open field test after Cxcl1 injection; details: Cxcl1 5 μg/kg i.p. daily for 7 days vs vehicle
Procedure: as §3
as §2, with “Locomotor” for “Reparixin L-lysine salt (MedChemExpress, #HY-15252) or L-Lysine hydrochloride (MedChemExpress, #HY-N0470) was dissolved in H2O was administered to obese C57BL/6 mice (fed for 2 months with high-fat diet) via subcutaneous injection (30 mg/kg) twice per day for 2 weeks. 2 hours after the last injection mice were tested in open field and elevated plus maze and afterwards dissected. Locomotor”

| Molecule | behavior in the EPM (obese C57BL/6 mice [1]) | behavior in the open field box (obese C57BL/6 mice [2]) | anxiety-like behavior, EPM (head entries in the open arms) (lean C57BL/6 [3]) | anxiety-like behavior, EPM (head entries in the open arms) (lean C57BL/6 [3]; listed as Cxcl-1) | circulating Cxcl1 in blood plasma [4] | circulating Cxcl1 in blood plasma ([4]; listed as Cxcl-1) | anxiety-like behavior, open field (distance in the central area) (lean C57BL/6 [5]) | anxiety-like behavior, open field (distance in the central area) (lean C57BL/6 [5]; listed as Cxcl-1) |
| --- | --- | --- | --- | --- | --- | --- | --- | --- |
| CC(C)Cc1ccc([C@@H](C)C(=O)NS(C)(=O)=O)cc1 [Reparixin] | no difference | no difference |  |  |  |  |  |  |
| B1 |  |  | no difference | not different | increased levels | significantly increased | no difference | not different |
